According to the supplement of paper PMC10567573:

B1: MMP1 (parent)
chain: FVRGDHRDNSPFDGPGGNLAHAFQ

Variants of: B1
Assay: protein stability index of a GFP-peptide fusion (GPS, HEK-293T) (PSI 1-6); higher = more stable
Settings: c terminus: a fixed tail appended
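Note: lentivirally expressed fusions sorted by FACS into six bins by GFP to DsRed ratio, PSI derived from sequencing read proportions per bin multiplied by bin number.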

Going from FVRGDHVDNSPFDGPGGNLAHAFQ [R7V] to FVRGDHKDNSPFDGPGGNLAHAFQ [R7K], the protein stability index falls from 2.04 to 1.68.

First: FVRGDHCDNSPFDGPGGNLAHAFQ [R7C]
Second: FVRGDHTDNSPFDGPGGNLAHAFQ [R7T]
The protein stability index of the first is lower: 1.82 for the first, 2.18 for the second.

Compared with FVRGDHHDNSPFDGPGGNLAHAFQ [R7H], FVRGDHIDNSPFDGPGGNLAHAFQ [R7I] is lower in protein stability index: 2.91 for the first, 2.77 for the second.

Going from FVRGDHNDNSPFDGPGGNLAHAFQ [R7N] to FVRGDHQDNSPFDGPGGNLAHAFQ [R7Q], the protein stability index rises from 1.7 to 2.55.

First: FVRGDHADNSPFDGPGGNLAHAFQ [R7A]
Second: FVRGDHLDNSPFDGPGGNLAHAFQ [R7L]
The protein stability index of the first is lower: 2.02 for the first, 3.54 for the second.

First: FVRGDHEDNSPFDGPGGNLAHAFQ [R7E]
Second: FVRGDHYDNSPFDGPGGNLAHAFQ [R7Y]
The protein stability index of the first is lower: 1.91 for the first, 2.18 for the second.

Compared with FVRGDHSDNSPFDGPGGNLAHAFQ [R7S], FVRGDHWDNSPFDGPGGNLAHAFQ [R7W] is higher in protein stability index: 1.37 for the first, 2.33 for the second.

Compared with FVRGDHDDNSPFDGPGGNLAHAFQ [R7D], FVRGDHPDNSPFDGPGGNLAHAFQ [R7P] is higher in protein stability index: 1.56 for the first, 2.8 for the second.

Going from FVRGDHGDNSPFDGPGGNLAHAFQ [R7G] to FVRGDHFDNSPFDGPGGNLAHAFQ [R7F], the protein stability index rises from 1.26 to 2.83.

Compared with FVRGDHMDNSPFDGPGGNLAHAFQ [R7M], FVRGDHRWNSPFDGPGGNLAHAFQ [D8W] is higher in protein stability index: 1.78 for the first, 3.09 for the second.

First: FVRGDHRHNSPFDGPGGNLAHAFQ [D8H]
Second: FVRGDHRSNSPFDGPGGNLAHAFQ [D8S]
The protein stability index of the first is higher: 2.29 for the first, 2.08 for the second.

Going from FVRGDHRLNSPFDGPGGNLAHAFQ [D8L] to FVRGDHRTNSPFDGPGGNLAHAFQ [D8T], the protein stability index rises from 2.25 to 2.28.

First: FVRGDHRMNSPFDGPGGNLAHAFQ [D8M]
Second: FVRGDHRGNSPFDGPGGNLAHAFQ [D8G]
The protein stability index of the first is higher: 3.46 for the first, 1.84 for the second.

Going from FVRGDHRVNSPFDGPGGNLAHAFQ [D8V] to FVRGDHRENSPFDGPGGNLAHAFQ [D8E], the protein stability index falls from 2.25 to 1.31.

First: FVRGDHRCNSPFDGPGGNLAHAFQ [D8C]
Second: FVRGDHRINSPFDGPGGNLAHAFQ [D8I]
The protein stability index of the first is higher: 3.26 for the first, 1.87 for the second.

Compared with FVRGDHRNNSPFDGPGGNLAHAFQ [D8N], FVRGDHRANSPFDGPGGNLAHAFQ [D8A] is lower in protein stability index: 2.68 for the first, 1.63 for the second.

Going from FVRGDHRPNSPFDGPGGNLAHAFQ [D8P] to FVRGDHRYNSPFDGPGGNLAHAFQ [D8Y], the protein stability index rises from 2.12 to 3.24.

Compared with FVRGDHRKNSPFDGPGGNLAHAFQ [D8K], FVRGDHRQNSPFDGPGGNLAHAFQ [D8Q] is higher in protein stability index: 2.78 for the first, 3.21 for the second.

Going from FVRGDHRFNSPFDGPGGNLAHAFQ [D8F] to FVRGDHRRNSPFDGPGGNLAHAFQ [D8R], the protein stability index falls from 4.46 to 1.62.

Going from FVRRDHRDNSPFDGPGGNLAHAFQ [G4R] to FVRIDHRDNSPFDGPGGNLAHAFQ [G4I], the protein stability index rises from 1.56 to 1.64.

Compared with FVRADHRDNSPFDGPGGNLAHAFQ [G4A], FVRFDHRDNSPFDGPGGNLAHAFQ [G4F] is higher in protein stability index: 2 for the first, 2.06 for the second.

First: FVRSDHRDNSPFDGPGGNLAHAFQ [G4S]
Second: FVRLDHRDNSPFDGPGGNLAHAFQ [G4L]
The protein stability index of the first is higher: 2.41 for the first, 1.68 for the second.

First: FVRDDHRDNSPFDGPGGNLAHAFQ [G4D]
Second: FVREDHRDNSPFDGPGGNLAHAFQ [G4E]
The protein stability index of the first is higher: 3.02 for the first, 1.76 for the second.

Compared with FVRYDHRDNSPFDGPGGNLAHAFQ [G4Y], FVRCDHRDNSPFDGPGGNLAHAFQ [G4C] is higher in protein stability index: 2.09 for the first, 2.67 for the second.

Going from FVRPDHRDNSPFDGPGGNLAHAFQ [G4P] to FVRKDHRDNSPFDGPGGNLAHAFQ [G4K], the protein stability index falls from 1.73 to 1.57.

Going from FVRVDHRDNSPFDGPGGNLAHAFQ [G4V] to FVRHDHRDNSPFDGPGGNLAHAFQ [G4H], the protein stability index rises from 1.94 to 2.26.

Going from FVRQDHRDNSPFDGPGGNLAHAFQ [G4Q] to FVRTDHRDNSPFDGPGGNLAHAFQ [G4T], the protein stability index rises from 2.42 to 2.52.

Compared with FVRNDHRDNSPFDGPGGNLAHAFQ [G4N], FVRWDHRDNSPFDGPGGNLAHAFQ [G4W] is lower in protein stability index: 2.04 for the first, 1.94 for the second.

Compared with FVRGDHRDCSPFDGPGGNLAHAFQ [N9C], FVRGDHRDASPFDGPGGNLAHAFQ [N9A] is higher in protein stability index: 1.93 for the first, 2.53 for the second.

Compared with FVRGDMRDNSPFDGPGGNLAHAFQ [H6M], FVRGDPRDNSPFDGPGGNLAHAFQ [H6P] is lower in protein stability index: 2.16 for the first, 1.48 for the second.

First: FVRGDLRDNSPFDGPGGNLAHAFQ [H6L]
Second: FVRGDQRDNSPFDGPGGNLAHAFQ [H6Q]
The protein stability index of the first is higher: 2.64 for the first, 1.42 for the second.

First: FVRGDSRDNSPFDGPGGNLAHAFQ [H6S]
Second: FVRGDVRDNSPFDGPGGNLAHAFQ [H6V]
The protein stability index of the first is lower: 1.85 for the first, 2.48 for the second.

Going from FVRGDFRDNSPFDGPGGNLAHAFQ [H6F] to FVRGDIRDNSPFDGPGGNLAHAFQ [H6I], the protein stability index falls from 3.13 to 1.55.

Going from FVRGDKRDNSPFDGPGGNLAHAFQ [H6K] to FVRGDRRDNSPFDGPGGNLAHAFQ [H6R], the protein stability index falls from 2.57 to 1.99.

Going from FVRGDTRDNSPFDGPGGNLAHAFQ [H6T] to FVRGDARDNSPFDGPGGNLAHAFQ [H6A], the protein stability index rises from 1.58 to 2.42.

First: FVRGDDRDNSPFDGPGGNLAHAFQ [H6D]
Second: FVRGDCRDNSPFDGPGGNLAHAFQ [H6C]
The protein stability index of the first is higher: 2.5 for the first, 2.02 for the second.

Compared with FVRGDERDNSPFDGPGGNLAHAFQ [H6E], FVRGDNRDNSPFDGPGGNLAHAFQ [H6N] is lower in protein stability index: 1.76 for the first, 1.33 for the second.

First: FVRGDGRDNSPFDGPGGNLAHAFQ [H6G]
Second: FVWGDHRDNSPFDGPGGNLAHAFQ [R3W]
The protein stability index of the first is higher: 2.26 for the first, 1.86 for the second.

First: FVTGDHRDNSPFDGPGGNLAHAFQ [R3T]
Second: FVQGDHRDNSPFDGPGGNLAHAFQ [R3Q]
The protein stability index of the first is higher: 2.13 for the first, 1.71 for the second.

Going from FVYGDHRDNSPFDGPGGNLAHAFQ [R3Y] to FVVGDHRDNSPFDGPGGNLAHAFQ [R3V], the protein stability index rises from 1.93 to 2.37.

Going from FVSGDHRDNSPFDGPGGNLAHAFQ [R3S] to FVRGNHRDNSPFDGPGGNLAHAFQ [D5N], the protein stability index rises from 1.99 to 2.52.

First: FVRGEHRDNSPFDGPGGNLAHAFQ [D5E]
Second: FVRGGHRDNSPFDGPGGNLAHAFQ [D5G]
The protein stability index of the first is higher: 1.5 for the first, 1.34 for the second.

First: FVRGKHRDNSPFDGPGGNLAHAFQ [D5K]
Second: FVRGPHRDNSPFDGPGGNLAHAFQ [D5P]
The protein stability index of the first is higher: 3.58 for the first, 2.27 for the second.

Compared with FVRGVHRDNSPFDGPGGNLAHAFQ [D5V], FVRGAHRDNSPFDGPGGNLAHAFQ [D5A] is higher in protein stability index: 1.81 for the first, 2.15 for the second.

Going from FVRGIHRDNSPFDGPGGNLAHAFQ [D5I] to FVRGWHRDNSPFDGPGGNLAHAFQ [D5W], the protein stability index rises from 1.66 to 2.86.

First: FVRGRHRDNSPFDGPGGNLAHAFQ [D5R]
Second: FVRGFHRDNSPFDGPGGNLAHAFQ [D5F]
The protein stability index of the first is higher: 3.46 for the first, 2.45 for the second.

Going from FVRGTHRDNSPFDGPGGNLAHAFQ [D5T] to FVRGSHRDNSPFDGPGGNLAHAFQ [D5S], the protein stability index falls from 3.73 to 2.75.
